From doi:10.1101/2023.03.17.533217 (2023)

B1: activating monobody Mb1 (designed binder)
chain: GSVSSVPTKLEVVAATPTSLLISWDAQTYQMYDYVSYYRITYGETGGNSPVQEFTVPGYYSTATISGLKPGVDYTITVYAEGYYSSYSPISINYRT
B2: inhibiting monobody Mb2 (designed binder)
chain: GSVSSVPTKLEVVAATPTSLLISWDAPAVTVVHYVITYGETGGNSPVQEFTVPGSKSTATISGLKPGVDYTITVYAIDFYWGSYSPISINYRT
B3: Aurora A kinase (AurA), residues 122-403, dephosphorylated (domain or fragment)
chain: ESKKRQWALEDFEIGRPLGKGKFGNVYLAREKQSKFILALKVLFKAQLEKAGVEHQLRREVEIQSHLRHPNILRLYGYFHDATRVYLILEYAPLGTVYRELQKLSKFDEQRTATYITELANALSYCHSKRVIHRDIKPENLLLGSAGELKIADFGWSVHAPSSRRTTLCGTLDYLPPEMIEGRMHDEKVDLWSLGVLCYEFLVGKPPFEANTYQETYKRISRVEFTFPDFVTEGARDLISRLLKHNPSQRPMLREVLEHPWITANSSKPSNCQNKESASKQS

Key:
[1] = molecular target: B3; experiment: ITC; 150 µM danusertib
[2] = molecular target: B3; experiment: ITC
[3] = molecular target: B3; experiment: ITC; 50 µM danusertib
[4] = molecular target: B3; experiment: ITC; danusertib
[5] = molecular target: Mb3; experiment: ITC
[6] = molecular target: Mb3; experiment: ITC; danusertib

Binder | Kd [1] | Kd [2] | Kd [3] | Kd [4] | Kd [5] | Kd [6]
B1 | 17700 nM | 952 nM | 18000 nM | – | – | –
B2 | – | 1500 nM | – | 889 nM | – | –
B3 | – | – | – | – | 180 nM | 69 nM
